Groups on a side chain read outwards from the residue. No end group written: not given here. NSMP = not defined here
T1: BSA-conjugated Aβ heptapeptide AEFRHDC (C-terminal Cys coupled to NSMP-activated BSA)
T1 construct: also called Peptide 2-7
T1 peptide: AEFRHDC

T2: BSA-conjugated Aβ heptapeptide LVFFAEC (reading uncertain; also: BSA conjugate)
T2 construct: also called Peptide 17-22
T2 peptide: LVFFAEC([NSMP-BSA])

T3: BSA-conjugated Aβ heptapeptide VFFAEDC (C-terminal Cys coupled to NSMP-activated BSA)
T3 construct: also called Peptide 18-23
T3 peptide: VFFAEDC

T4: BSA-conjugated Aβ heptapeptide FFAEDVC (C-terminal Cys coupled to NSMP-activated BSA)
T4 construct: also called Peptide 19-24
T4 peptide: FFAEDVC


Assays:
human Aβ (1-40) peptide [1] = target: T5, human Aβ (1-40) peptide (human); assay: SPR, kinetic fit, immobilized fibers;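 further: surface plasmon resonance on a Biacore chip bearing in vitro formed Aβ1-40 or Aβ1-42 fibers, KD taken as koff/kon by fitting time-resolved sensor responses, based on total Fab concentration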
T5 construct: also called Aβ1-40 fibers
Procedure: (§1) Biacore2000 and Biacore3000 instruments were used for these measurements. Aβ1-40 and Aβ1-42 fibers were generated in vitro by incubation of synthetic peptides at a concentration of 200 μg/ml in 10 mM Na-acetate buffer (pH 4.0) for three days at 37° C. […] For binders with slow kinetics KD values were calculated by curve fitting of the time-dependent sensor responses, i.e. from the ratio of koff/kₒₙ. Binders with fast kinetics were analyzed by fitting the concentration-dependent sensor responses at equilibrium (adsorption-isotherms). KD values were calculated from the Biacore sensograms based on the total Fab concentration as determined by a protein assay. […] Briefly, time-dependent protein binding to Aβ1-40 fibers immobilized on the Biacore chip was measured during the association phase under mass-limited conditions at different flow rates of the analyte solution.

Aβ (1-42) peptide [2] = target: T6, Aβ (1-42) peptide (human); assay: SPR, kinetic fit, immobilized fibers;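 further: surface plasmon resonance on a Biacore chip bearing in vitro formed Aβ1-40 or Aβ1-42 fibers, KD taken as koff/kon by fitting time-resolved sensor responses, based on total Fab concentration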
T6 construct: also called Aβ1-42 fibers; Aβ4
Procedure: as §1

[3] = target: T1, BSA-conjugated Aβ heptapeptide AEFRHDC; assay: ELISA
Procedure: (§2) 50 μl of NSMP activated BSA (6.7 mg/ml) was diluted with 50 μl of PBS, 0.1% sodium azide and 10 μl of peptide solution (1 mM in DMSO) was added. As negative control activated BSA was mock-treated without peptide addition. After 4 hrs at room temperature the reaction was stopped by addition of 10 μl of 10 mM Cystein. An aliquot of the conjugate reaction mixture was diluted 1:100 with 0.1M sodium bicarbonate buffer and immediately filled into the wells (100 μl) of ELISA plates (Nunc Immuno-Plate). After standing 16 hrs at 4° C. 100 μl blocking buffer (as above) was added to each well and incubated for another 30 minutes. The plates were washed with 2×300 μl/well TBST (as above) and filled with 100 μl antibody at 10 μg/ml or 2 μg/ml in blocking buffer. The plates were kept 16 hours at 4° C. and washed with 2×300 μl TBST. 100 μl/well HRP-conjugated anti-human Ig H+L (Pierce, dilution 1:1000 with blocking buffer) was added and incubated for 1 hour at ambient temperature. The plates were washed with 3×300 μl/well TBST. Colour development was started by addition of 100 μl tetra-methyl benzidine/hydrogen peroxide reagent.

[4] = target: T2, BSA-conjugated Aβ heptapeptide LVFFAEC; assay: ELISA
Procedure: as §2

[5] = target: T3, BSA-conjugated Aβ heptapeptide VFFAEDC; assay: ELISA
Procedure: as §2

[6] = target: T4, BSA-conjugated Aβ heptapeptide FFAEDVC; assay: ELISA
Procedure: as §2

human Aβ (1-40) peptide [7] = target: T5, human Aβ (1-40) peptide; assay: SPR Scatchard, higher affinity (bivalent)
Procedure: (§3) Binders with fast kinetics were analyzed by fitting the concentration-dependent sensor responses at equilibrium (adsorption-isotherms). KD values were calculated from the Biacore sensograms based on the total Fab concentration as determined by a protein assay. […] Briefly, time-dependent protein binding to Aβ1-40 fibers immobilized on the Biacore chip was measured during the association phase under mass-limited conditions at different flow rates of the analyte solution.
(§4) KD values of IgG binding to Aβ1-40 and Aβ1-42 fibers were determined in the Biacore. Briefly, a kinetic model for the stepwise formation of a bivalent complex was used, and KD values were calculated by Scatchard type analysis of equilibrium binding. Due to the very slow association process at low antibody concentration (several hours to reach equilibrium) equilibrium binding data were obtained by extrapolation of the association curves to long time intervals. The on- and off rates for the formation of the monovalent and bivalent complex were determined via the curve fit procedure and used for the extrapolation. Based on these Req values a Scatchard analysis was performed and KD values for the formation of the monovalent and the bivalent complex were determined.

Aβ (1-42) peptide [8] = target: T6, Aβ (1-42) peptide; assay: SPR Scatchard, higher affinity (bivalent)
Procedure: as §3, §4
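Wherever OD ratio 17-22/BSA is given: ELISA binding of human antibody (10 or 2 µg/ml) to plate-coated BSA–peptide conjugates, detected with HRP anti-human Ig and TMB colour, mock-treated BSA as negative control.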
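Wherever OD ratio 18-23/BSA is given: ELISA binding of human antibody (10 or 2 µg/ml) to plate-coated BSA–peptide conjugates, detected with HRP anti-human Ig and TMB colour, mock-treated BSA as negative control.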
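Wherever OD ratio 2-7/BSA is given: ELISA binding of human antibody (10 or 2 µg/ml) to plate-coated BSA–peptide conjugates, detected with HRP anti-human Ig and TMB colour, mock-treated BSA as negative control.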
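Wherever Peptide-ratio 17-22/2-7 is given: ELISA binding of human antibody (10 or 2 µg/ml) to plate-coated BSA–peptide conjugates, detected with HRP anti-human Ig and TMB colour, mock-treated BSA as negative control.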

Row | Kd (human Aβ (1-40) peptide [1]) | Kd (Aβ (1-42) peptide [2]) | Kd (human Aβ (1-40) peptide [7]) | Kd (Aβ (1-42) peptide [8]) | Binder | also measured
1 |  |  | 0.09 to 0.3 nM | 0.1 to 0.66 nM | MS-R IgG1 7.2.H4 (antibody, V domains shown, full-length human IgG1) VH: QVELVESGGGLVQPGGSLRLSCAASGFTFSSYAMSWVRQAPGKGLEWVSAINSKGSRIYYADSVKGRFTISRDNSKNTLYLQMNSLRAEDTAVYYCARGKGNTHKPYGYVRYFDVWGQGTLVTVSS VL: DIVLTQSPATLSLSPGERATLSCRASQSVSSSYLAWYQQKPGQAPRLLIYGASSRATGVPARFSGSGSGTDFTLTISSLEPEDFATYYCQQIYSFPHTFGQGTKVEIK | 
2 | 1.26 nM | 0.84 nM |  |  | MS-Roche #3.6H5×3.6L2 Fab (Fab, V domains shown, cross-cloned Fab; VH entry starts at QLVESGG) VH: QLVESGGGLVQPGGSLRLSCAASGFTFSSYAMSWVRQAPGKGLEWVSAISESGKTKYYADSVKGRFTISRDNSKNTLYLQMNSLRAEDTAVYYCARLTHYARYYRYFDVWGQGTLVTVSS VL: DIVLTQSPATLSLSPGERATLSCRASQFLSRYYLAWYQQKPGQAPRLLIYGASSRATGVPARFSGSGSGTDFTLTISSLEPEDFAVYYCQQTYNYPPTFGQGTKVEIKR | 
3 |  |  | 0.12 to 0.63 nM | 0.12 to 0.56 nM | MS-R IgG1 7.4.H2 × 7.2.L1 (antibody, V domains shown, full-length human IgG1; VH entry starts at QLVESGG) VH: ELVESGGGLVQPGGSLRLSCAASGFTFSSYAMSWVRQAPGKGLEWVSAINYNGARIYYADSVKGRFTISRDNSKNTLYLQMNSLRAEDTAVYYCARGKGNTHKPYGYVRYFDVWGQGTLVTVSS VL: DIVLTQSPATLSLSPGERATLSCRASQYVDRTYLAWYQQKPGQAPRLLIYGASSRATGVPARFSGSGSGTDFTLTISSLEPEDFATYYCQQIYSFPHTFGQGTKVEIKR | 
4 | 1.4 nM | 1.4 nM |  |  | MS-Roche #7.4H2×7.2L1 Fab (Fab, V domains shown, cross-cloned Fab; VH entry starts at QLVESGG) VH: QLVESGGGLVQPGGSLRLSCAASGFTFSSYAMSWVRQAPGKGLEWVSAINYNGARIYYADSVKGRFTISRDNSKNTLYLQMNSLRAEDTAVYYCARGKGNTHKPYGYVRYFDVWGQGTLVTVSS VL: DIVLTQSPATLSLSPGERATLSCRASQYVDRTYLAWYQQKPGQAPRLLIYGASSRATGVPARFSGSGSGTDFTLTISSLEPEDFATYYCQQIYSFPHTFGQGTKVEIKR | 
5 | 1.05 nM | 0.93 nM |  |  | MS-Roche #3.4H3×3.4L9 Fab (Fab, V domains shown, cross-cloned Fab) VH: QLVESGGGLVQPGGSLRLSCAASGFTFSSYAMSWVRQAPGKGLEWVSVISQTGRKIYYADSVKGRFTISRDNSKNTLYLQMNSLRAEDTAVYYCARLTHYARYYRYFDVWGQGTLVTVSS VL: DIVLTQSPATLSLSPGERATLSCRASRRIHVYYLAWYQQKPGQAPRLLIYGASSRATGVPARFSGSGSGTDFTLTISSLEPEDFATYYCQQTYDYPPTFGQGTKVEIKR | 

Continued, binder first:

Row | Binder | Kd (human Aβ (1-40) peptide [1]) | Kd (Aβ (1-42) peptide [2]) | Kd (human Aβ (1-40) peptide [7]) | Kd (Aβ (1-42) peptide [8]) | also measured
6 | MS-Roche #7.4H2×7.12L2 Fab (Fab, V domains shown, cross-cloned Fab) VH: QLVESGGGLVQPGGSLRLSCAASGFTFSSYAMSWVRQAPGKGLEWVSAINYNGARIYYADSVKGRFTISRDNSKNTLYLQMNSLRAEDTAVYYCARGKGNTHKPYGYVRYFDVWGQGTLVTVSS VL: DIVLTQSPATLSLSPGERATLSCRASQRFFYKYLAWYQQKPGQAPRLLISGSSNRATGVPARFSGSGSGTDFTLTISSLEPEDFAVYYCLQLYNIPNTFGQGTKVEIKR | 1.4 nM | 1.8 nM |  |  | 
7 | MS-Roche #7.9H2×7.12L2(L1+2) Fab (Fab, V domains shown, VL assembled from the legend's definition and cloning strategy 3) VH: QLVESGGGLVQPGGSLRLSCAASGFTFSSYAMSWVRQAPGKGLEWVSAINADGNRKYYADSVKGRFTISRDNSKNTLYLQMNSLRAEDTAVYYCARGKGNTHKPYGYVRYFDVWGQGTLVTVSS VL: DIVLTQSPATLSLSPGERATLSCRASQRFFYKYLAWYQQKPGQAPRLLISGSSNRATGVPARFSGSGSGTDFTLTISSLEPEDFATYYCLQIYNMPITFGQGTKVEIKR | 0.4 nM | 0.4 nM |  |  | 
8 | MS-R IgG 7.11H2 (antibody, V domains shown, full-length human IgG; also called 7.11H2 IgG) VH: QVELVESGGGLVQPGGSLRLSCAASGFTFSSYAMSWVRQAPGKGLEWVSAINANGYKKYYADSVKGRFTISRDNSKNTLYLQMNSLRAEDTAVYYCARGKGNTHKPYGYVRYFDVWGQGTLVTVSS VL: DIVLTQSPATLSLSPGERATLSCRASQSVSSSYLAWYQQKPGQAPRLLIYGASSRATGVPARFSGSGSGTDFTLTISSLEPEDFATYYCQQVYSPPHTFGQGTKVEIKR |  |  |  |  | OD ratio 2-7/BSA [3]: 10; OD ratio 17-22/BSA [4]: 6; Peptide-ratio 17-22/2-7 [4]: 0.6; OD ratio 18-23/BSA [5]: 7; Peptide-ratio 18-23/2-7 [5]: 0.7; OD ratio 19-24/BSA [6]: 6; Peptide-ratio 19-24/2-7 [6]: 0.6
9 | MS-Roche #7.11H1×7.2L1 Fab (Fab, V domains shown, cross-cloned Fab; VH entry starts at QLVESGG) VH: QLVESGGGLVQPGGSLRLSCAASGFTFSSYAMSWVRQAPGKGLEWVSGINAAGFRTYYADSVKGRFTISRDNSKNTLYLQMNSLRAEDTAVYYCARGKGNTHKPYGYVRYFDVWGQGTLVTVSS VL: DIVLTQSPATLSLSPGERATLSCRASQYVDRTYLAWYQQKPGQAPRLLIYGASSRATGVPARFSGSGSGTDFTLTISSLEPEDFATYYCQQIYSFPHTFGQGTKVEIKR | 1.75 nM | 1.39 nM |  |  | 
10 | MS-R IgG1 3.6.H8 × 3.6.L2 (antibody, V domains shown, full-length human IgG1; VH entry starts at QLVESGG) VH: ELVESGGGLVQPGGSLRLSCAASGFTFSSYAMSWVRQAPGKGLEWVSAISEYSKFKYYADSVKGRFTISRDNSKNTLYLQMNSLRAEDTAVYYCARLTHYARYYRYFDVWGQGTLVTVSS VL: DIVLTQSPATLSLSPGERATLSCRASQFLSRYYLAWYQQKPGQAPRLLIYGASSRATGVPARFSGSGSGTDFTLTISSLEPEDFAVYYCQQTYNYPPTFGQGTKVEIKR |  |  | 0.22 to 0.95 nM | 0.22 to 0.82 nM | 
11 | MS-R IgG1 7.12.L1 (antibody, V domains shown, full-length human IgG1) VH: QVQLVESGGGLVQPGGSLRLSCAASGFTFSSYGMSWVRQAPGKGLEWVSNISGSGSSTYYADSVKGRFTISRDNSKNTLYLQMNSLRAEDTAVYYCARGKGNTHKPYGYVRYFDVWGQGTLVTVSS VL: DIVLTQSPATLSLSPGERATLSCRASQYVFRRYLAWYQQKPGQAPRLLISGSSNRATGVPARFSGSGSGTDFTLTISSLEPEDFAVYYCLQLYNIPNTFGQGTKVEIKR |  |  | 1.2 to 3.5 nM | 0.74 to 2.9 nM | 
12 | MS-Roche #8.1H1×8.2L1 Fab (Fab, V domains shown, cross-cloned Fab) VH: QLVESGGGLVQPGGSLRLSCAASGFTFSSYAMSWVRQAPGKGLEWVSAISRSGSNIYYADSVKGRFTISRDNSKNTLYLQMNSLRAEDTAVYYCARLLSRGYNGYYHKFDVWGQGTLVTVSS VL: DIVLTQSPATLSLSPGERATLSCRASQRVSGRYLAWYQQKPGQAPRLLIYGASSRATGVPARFSGSGSGTDFTLTISSLEPEDFATYYCQQLSSYPPTFGQGTKVEIKR | 1.3 nM | 1.6 nM |  |  | 
13 | MS-Roche #7.11H1×7.11L1 Fab (Fab, V domains shown, cross-cloned Fab; VH entry starts at QLVESGG) VH: QLVESGGGLVQPGGSLRLSCAASGFTFSSYAMSWVRQAPGKGLEWVSGINAAGFRTYYADSVKGRFTISRDNSKNTLYLQMNSLRAEDTAVYYCARGKGNTHKPYGYVRYFDVWGQGTLVTVSS VL: DIVLTQSPATLSLSPGERATLSCRASQRILRIYLAWYQQKPGQAPRLLIYGASSRATGVPARFSGSGSGTDFTLTISSLEPEDFATYYCQQVYSPPHTFGQGTKVEIKR | 0.41 nM | 0.47 nM |  |  | 
14 | MS-Roche #7.11H2×7.2L1(L1) Fab (Fab, V domains shown) VH: QLVESGGGLVQPGGSLRLSCAASGFTFSSYAMSWVRQAPGKGLEWVSAINANGYKKYYADSVKGRFTISRDNSKNTLYLQMNSLRAEDTAVYYCARGKGNTHKPYGYVRYFDVWGQGTLVTVSS VL: DIVLTQSPATLSLSPGERATLSCRASQYVDRTYLAWYQQKPGQAPRLLIYGASSRATGVPARFSGSGSGTDFTLTISSLEPEDFATYYCQQIYSFPHTFGQGTKVEIKR | 1 nM | 0.6 nM |  |  | 
15 | MS-R #7.11.H1×7.2.L1 IgG1 (antibody, V domains shown, full-length human IgG1; VH entry starts at QLVESGG; also called MAB 11) VH: ELVESGGGLVQPGGSLRLSCAASGFTFSSYAMSWVRQAPGKGLEWVSGINAAGFRTYYADSVKGRFTISRDNSKNTLYLQMNSLRAEDTAVYYCARGKGNTHKPYGYVRYFDVWGQGTLVTVSS VL: DIVLTQSPATLSLSPGERATLSCRASQYVDRTYLAWYQQKPGQAPRLLIYGASSRATGVPARFSGSGSGTDFTLTISSLEPEDFATYYCQQIYSFPHTFGQGTKVEIKR |  |  | 0.14 to 0.66 nM | 0.15 to 0.67 nM | 
16 | MS-R IgG1 7.11.H1 × 7.11.L1 (antibody, V domains shown, full-length human IgG1; VH entry starts at QLVESGG) VH: ELVESGGGLVQPGGSLRLSCAASGFTFSSYAMSWVRQAPGKGLEWVSGINAAGFRTYYADSVKGRFTISRDNSKNTLYLQMNSLRAEDTAVYYCARGKGNTHKPYGYVRYFDVWGQGTLVTVSS VL: DIVLTQSPATLSLSPGERATLSCRASQRILRIYLAWYQQKPGQAPRLLIYGASSRATGVPARFSGSGSGTDFTLTISSLEPEDFATYYCQQVYSPPHTFGQGTKVEIKR |  |  | 0.11 to 0.7 nM | 0.13 to 0.7 nM | 
17 | MS-Roche #3.4H7×3.4L7 Fab (Fab, V domains shown, cross-cloned Fab) VH: QLVESGGGLVQPGGSLRLSCAASGFTFSSYAMSWVRQAPGKGLEWVSVISETGKNIYYADSVKGRFTISRDNSKNTLYLQMNSLRAEDTAVYYCARLTHYARYYRYFDVWGQGTLVTVSS VL: DIVLTQSPATLSLSPGERATLSCRASQRLGRLYLAWYQQKPGQAPRLLIYGASSRATGVPARFSGSGSGTDFTLTISSLEPEDFATYYCQQTYDYPPTFGQGTKVEIKR | 1.19 nM | 1.23 nM |  |  | 
18 | MS-Roche #7.2H2×7.2L1 Fab (Fab, V domains shown, cross-cloned Fab) VH: QLVESGGGLVQPGGSLRLSCAASGFTFSSYAMSWVRQAPGKGLEWVSAINGTGMKKYYADSVKGRFTISRDNSKNTLYLQMNSLRAEDTAVYYCARGKGNTHKPYGYVRYFDVWGQGTLVTVSS VL: DIVLTQSPATLSLSPGERATLSCRASQYVDRTYLAWYQQKPGQAPRLLIYGASSRATGVPARFSGSGSGTDFTLTISSLEPEDFATYYCQQIYSFPHTFGQGTKVEIKR | 1.29 nM | 1.43 nM |  |  | 
19 | MS-Roche #3.6H5×3.6L1 Fab (Fab, V domains shown, cross-cloned Fab) VH: QLVESGGGLVQPGGSLRLSCAASGFTFSSYAMSWVRQAPGKGLEWVSAISESGKTKYYADSVKGRFTISRDNSKNTLYLQMNSLRAEDTAVYYCARLTHYARYYRYFDVWGQGTLVTVSS VL: DIVLTQSPATLSLSPGERATLSCRASQFIQRFYLAWYQQKPGQAPRLLIYGASSRATGVPARFSGSGSGTDFTLTISSLEPEDFAVYYCQQTYNYPPTFGQGTKVEIKR | 1.25 nM | 1.04 nM |  |  | 
